Biological target: T1, histone H4 (in the PARylated nucleosome) (UniProt P62799 1-103)
T1 construct: histone H4 as in the nucleosome m2; The H4 chain of m2, written on its own for the contact with ALC1's C-ATPase lobe; also called H4 tail
Assay: cryo-EM structure; re-analysis of the public dataset EMPIAR-10739 in CryoSPARC: WT ALC1 with an enzymatically PARylated nucleosome (Widom 601 DNA), sample contained ADP-BeF3; 15,740 particles, global resolution 6.60 Å, domains fitted as rigid bodies
Settings: both partners purified

binding result: binds
B1: Amplified in Liver Cancer 1 (ALC1), wild type (enzyme)
chain: MERAGATSRGGQAPGFLLRLHTEGRAEAARVQEQDLRQWGLTGIHLRSYQLEGVNWLAQRFHCQNGCILGDEMGLGKTCQTIALFIYLAGRLNDEGPFLILCPLSVLSNWKEEMQRFAPGLSCVTYAGDKEERACLQQDLKQESRFHVLLTTYEICLKDASFLKSFPWSVLVVDEAHRLKNQSSLLHKTLSEFSVVFSLLLTGTPIQNSLQELYSLLSFVEPDLFSKEEVGDFIQRYQDIEKESESASELHKLLQPFLLRRVKAEVATELPKKTEVVIYHGMSALQKKYYKAILMKDLDAFENETAKKVKLQNILSQLRKCVDHPYLFDGVEPEPFEVGDHLTEASGKLHLLDKLLAFLYSGGHRVLLFSQMTQMLDILQDYMDYRGYSYERVDGSVRGEERHLAIKNFGQQPIFVFLLSTRAGGVGMNLTAADTVIFVDSDFNPQNDLQAAARAHRIGQNKSVKVIRLIGRDTVEEIVYRKAASKLQLTNMIIEGGHFTLGAQKPAADADLQLSEILKFGLDKLLASEGSTMDEIDLESILGETKDGQWVSDALPAAEGGSRDQEEGKNHMYLFEGKDYSKEPSKEDRKSFEQLVNLQKTLLEKASQEGRSLRNKGSVLIPGLVEGSTKRKRVLSPEELEDRQKKRQEAAAKRRRLIEEKKRQKEEAEHKKKMAWWESNNYQSFCLPSEESEPEDLENGEESSAELDYQDPDATSLKYVSGDVTHPQAGAEDALIVHCVDDSGHWGRGGLFTALEKRSAEPRKIYELAGKMKDLSLGGVLLFPVDDKESRNKGQDLLALIVAQHRDRSNVLSGIKMAALEEGLKKIFLAAKKKKASVHLPRIGHATKGFNWYGTERLIRKHLAARGIPTYIYYFPRSKSAVLHSQSSSSSSRQLVP
notes: ALC1 (chromatin remodeler), human, UniProt Q86WJ1; wild type; residues 28-874 are modelled in the map; The sample is that of the public dataset EMPIAR-10739; also called WT ALC1

Source: paper doi:10.1101/2025.11.10.687450, “ALC1 Finds a New Foothold on the Nucleosome’s Super-Groove” (bioRxiv, 2025)
